The term Kd denotes the concentration at which binding is half-saturated.

Data set [1] has as its target T1, UvrD-CTD (Escherichia coli, UniProt P03018 645-720).
T1 sequence: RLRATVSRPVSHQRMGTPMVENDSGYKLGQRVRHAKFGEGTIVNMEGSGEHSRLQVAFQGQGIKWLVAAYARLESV
In words: NMR titration; up to 2 molar equivalents DNA; NMR titrations at 298 K: UvrD-CTD in UvrD NMR buffer (20 mM K-phosphate, 50 mM KCl, 5 mM DTT, pH 6.5, 10% D2O), Mfd-RID in PBS pH 7.4 with 10% D2O; BLI buffer not given in the material. The settings on record: protein: recombinant, tags: N-terminal His6, uncleavable.

For data set [2], the target named is Mfd-RID (Escherichia coli, UniProt P30958 472-547). In words: NMR titration; 2 molar equivalents DNA; NMR titrations at 298 K: UvrD-CTD in UvrD NMR buffer (20 mM K-phosphate, 50 mM KCl, 5 mM DTT, pH 6.5, 10% D2O), Mfd-RID in PBS pH 7.4 with 10% D2O; BLI buffer not given in the material. The settings on record: protein: recombinant; tags: His6-SUMO removed by SenP1; single strand.

The target in data set [3] is T1, UvrD-CTD. In words: BLI; NMR titrations at 298 K: UvrD-CTD in UvrD NMR buffer (20 mM K-phosphate, 50 mM KCl, 5 mM DTT, pH 6.5, 10% D2O), Mfd-RID in PBS pH 7.4 with 10% D2O; BLI buffer not given in the material. The settings on record: protein: recombinant, tags: N-terminal His6, uncleavable, label: biotin. (In general: BLI is a label-free optical method that tracks binding on a fibre tip over time.)

Data set [4] addresses T2, RNA polymerase core enzyme (subunits α2ββ'ω) (E. coli, UniProt P0A7Z4 1-329; P0A8V2 1-1342; P0A8T7 1-1407; P0A800 1-91).
T2 construct: RNA polymerase subunit alpha, E. coli; RNA polymerase subunit beta, E. coli; RNA polymerase subunit beta', E. coli; RNA polymerase subunit omega, E. coli; also called RNAP core-enzyme; source: expressed from plasmid pIA900, purified as by Svetlov and Artsimovitch with an added SEC step (Superose6); copies: 2 + 1 + 1 + 1
In words: BLI; Octet RED96, 303 K; biotinylated ligand on streptavidin biosensors, analyte in a dose series, 0.1% BSA; association and dissociation 1000 s each; which partner was immobilised is not told. The settings on record: both partners purified.

[5] abbreviates: self-complementary 28 bp duplex of 2 identical strands, 3' overhangs 7 nt, snap cooled after dissolving.

T2 sequence (P0A7Z4 whole entry, chain 1 of 4): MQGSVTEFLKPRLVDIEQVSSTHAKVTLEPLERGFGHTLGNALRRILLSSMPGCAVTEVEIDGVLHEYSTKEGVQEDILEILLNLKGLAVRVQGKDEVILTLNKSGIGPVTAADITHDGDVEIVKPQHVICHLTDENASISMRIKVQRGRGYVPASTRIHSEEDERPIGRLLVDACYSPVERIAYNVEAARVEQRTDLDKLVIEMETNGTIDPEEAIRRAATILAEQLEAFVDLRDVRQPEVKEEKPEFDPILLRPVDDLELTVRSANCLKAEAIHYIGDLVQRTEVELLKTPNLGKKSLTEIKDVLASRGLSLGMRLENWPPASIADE
T2 sequence (P0A8V2 whole entry, chain 2 of 4): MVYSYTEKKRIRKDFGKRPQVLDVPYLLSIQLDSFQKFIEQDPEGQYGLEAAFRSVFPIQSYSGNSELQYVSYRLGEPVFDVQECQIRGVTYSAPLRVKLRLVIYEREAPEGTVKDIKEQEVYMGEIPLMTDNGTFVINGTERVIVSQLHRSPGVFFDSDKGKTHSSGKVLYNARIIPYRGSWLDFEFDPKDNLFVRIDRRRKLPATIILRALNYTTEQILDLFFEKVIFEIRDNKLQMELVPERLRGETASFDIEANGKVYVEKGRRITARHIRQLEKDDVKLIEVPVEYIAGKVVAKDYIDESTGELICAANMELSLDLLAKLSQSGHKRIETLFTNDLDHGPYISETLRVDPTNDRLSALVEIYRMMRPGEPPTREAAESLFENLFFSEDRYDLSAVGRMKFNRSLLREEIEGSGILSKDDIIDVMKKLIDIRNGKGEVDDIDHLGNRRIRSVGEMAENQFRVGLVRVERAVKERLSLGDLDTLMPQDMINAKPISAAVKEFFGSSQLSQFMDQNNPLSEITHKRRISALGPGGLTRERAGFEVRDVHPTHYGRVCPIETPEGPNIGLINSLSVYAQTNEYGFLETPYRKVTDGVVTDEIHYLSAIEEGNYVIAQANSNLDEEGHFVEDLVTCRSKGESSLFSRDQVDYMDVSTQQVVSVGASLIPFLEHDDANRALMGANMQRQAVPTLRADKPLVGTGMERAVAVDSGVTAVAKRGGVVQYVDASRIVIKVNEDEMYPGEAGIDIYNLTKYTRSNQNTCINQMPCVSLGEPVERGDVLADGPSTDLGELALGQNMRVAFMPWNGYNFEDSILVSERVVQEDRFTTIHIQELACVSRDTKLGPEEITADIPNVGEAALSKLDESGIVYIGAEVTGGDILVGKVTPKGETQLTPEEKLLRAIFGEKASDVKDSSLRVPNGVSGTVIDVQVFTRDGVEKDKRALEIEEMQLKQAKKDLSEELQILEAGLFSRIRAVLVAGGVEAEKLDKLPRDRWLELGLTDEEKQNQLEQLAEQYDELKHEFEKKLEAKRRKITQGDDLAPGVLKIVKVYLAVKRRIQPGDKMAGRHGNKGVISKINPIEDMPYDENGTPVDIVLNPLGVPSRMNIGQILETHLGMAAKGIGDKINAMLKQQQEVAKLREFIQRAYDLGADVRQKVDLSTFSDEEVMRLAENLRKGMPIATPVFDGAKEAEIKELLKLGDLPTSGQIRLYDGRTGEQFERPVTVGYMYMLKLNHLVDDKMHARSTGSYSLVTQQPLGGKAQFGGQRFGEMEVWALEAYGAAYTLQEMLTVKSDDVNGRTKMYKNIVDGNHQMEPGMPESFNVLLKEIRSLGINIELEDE
T2 sequence (P0A8T7 whole entry, chain 3 of 4): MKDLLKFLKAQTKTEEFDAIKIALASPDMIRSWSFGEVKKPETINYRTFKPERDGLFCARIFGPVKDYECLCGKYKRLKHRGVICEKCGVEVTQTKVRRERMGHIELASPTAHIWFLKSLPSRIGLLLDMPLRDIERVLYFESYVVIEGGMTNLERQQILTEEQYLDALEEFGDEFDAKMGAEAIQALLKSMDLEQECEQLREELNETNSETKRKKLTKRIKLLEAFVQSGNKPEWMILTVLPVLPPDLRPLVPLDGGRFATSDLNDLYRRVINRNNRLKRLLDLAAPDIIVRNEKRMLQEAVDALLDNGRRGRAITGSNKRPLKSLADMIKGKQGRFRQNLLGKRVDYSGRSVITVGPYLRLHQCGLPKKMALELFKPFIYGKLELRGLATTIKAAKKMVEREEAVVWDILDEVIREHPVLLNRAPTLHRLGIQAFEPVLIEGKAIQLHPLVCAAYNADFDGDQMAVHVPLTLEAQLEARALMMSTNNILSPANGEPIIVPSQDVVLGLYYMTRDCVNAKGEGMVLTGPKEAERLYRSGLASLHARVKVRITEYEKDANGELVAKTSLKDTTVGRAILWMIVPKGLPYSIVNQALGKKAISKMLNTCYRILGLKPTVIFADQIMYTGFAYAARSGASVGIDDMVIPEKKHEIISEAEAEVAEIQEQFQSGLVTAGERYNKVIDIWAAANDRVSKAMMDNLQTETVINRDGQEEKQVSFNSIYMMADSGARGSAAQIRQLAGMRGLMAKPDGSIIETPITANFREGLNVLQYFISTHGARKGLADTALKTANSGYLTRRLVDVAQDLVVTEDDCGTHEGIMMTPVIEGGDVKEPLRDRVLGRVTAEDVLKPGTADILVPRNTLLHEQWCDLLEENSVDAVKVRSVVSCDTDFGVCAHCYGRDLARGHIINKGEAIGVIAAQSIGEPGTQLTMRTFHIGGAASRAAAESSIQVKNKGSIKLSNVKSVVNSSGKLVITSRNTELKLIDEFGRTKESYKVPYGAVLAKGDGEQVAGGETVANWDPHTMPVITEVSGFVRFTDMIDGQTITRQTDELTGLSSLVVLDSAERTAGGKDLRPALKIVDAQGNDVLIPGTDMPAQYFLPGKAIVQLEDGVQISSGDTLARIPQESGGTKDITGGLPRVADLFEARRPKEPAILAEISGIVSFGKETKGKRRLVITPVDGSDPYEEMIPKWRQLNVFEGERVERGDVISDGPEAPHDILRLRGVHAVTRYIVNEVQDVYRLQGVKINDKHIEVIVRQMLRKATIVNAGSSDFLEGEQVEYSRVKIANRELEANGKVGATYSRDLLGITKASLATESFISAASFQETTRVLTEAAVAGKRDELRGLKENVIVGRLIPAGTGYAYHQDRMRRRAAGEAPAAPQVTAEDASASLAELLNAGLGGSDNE
T2 sequence (P0A800 whole entry, chain 4 of 4): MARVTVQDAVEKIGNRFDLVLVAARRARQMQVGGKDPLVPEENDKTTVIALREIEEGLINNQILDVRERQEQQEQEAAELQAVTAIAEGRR

In the case of GCAGTGCTCGTTTTTTT (ssDNA) [17mer ssDNA], the binding result was “binds” in data set [1] (single strand) and “no binding” in data set [2].

As for GCAGTGCTCGTTTTTTT (ssDNA, biotin (position not given)) [biotinylated 17mer ssDNA], in data set [3] (single strand), the Kd was determined as 3.8 ± 0.47 µM.

B1: Mfd full-length (1-1148) (enzyme, E. coli, UniProt P30958 1-1148, looked up)
chain: MPEQYRYTLPVKAGEQRLLGELTGAACATLVAEIAERHAGPVVLIAPDMQNALRLHDEISQFTDQMVMNLADWETLPYDSFSPHQDIISSRLSTLYQLPTMQRGVLIVPVNTLMQRVCPHSFLHGHALVMKKGQRLSRDALRTQLDSAGYRHVDQVMEHGEYATRGALLDLFPMGSELPYRLDFFDDEIDSLRVFDVDSQRTLEEVEAINLLPAHEFPTDKAAIELFRSQWRDTFEVKRDPEHIYQQVSKGTLPAGIEYWQPLFFSEPLPPLFSYFPANTLLVNTGDLETSAERFQADTLARFENRGVDPMRPLLPPQSLWLRVDELFSELKNWPRVQLKTEHLPTKAANANLGFQKLPDLAVQAQQKAPLDALRKFLETFDGPVVFSVESEGRREALGELLARIKIAPQRIMRLDEASDRGRYLMIGAAEHGFVDTVRNLALICESDLLGERVARRRQDSRRTINPDTLIRNLAELHIGQPVVHLEHGVGRYAGMTTLEAGGITGEYLMLTYANDAKLYVPVSSLHLISRYAGGAEENAPLHKLGGDAWSRARQKAAEKVRDVAAELLDIYAQRAAKEGFAFKHDREQYQLFCDSFPFETTPDQAQAINAVLSDMCQPLAMDRLVCGDVGFGKTEVAMRAAFLAVDNHKQVAVLVPTTLLAQQHYDNFRDRFANWPVRIEMISRFRSAKEQTQILAEVAEGKIDILIGTHKLLQSDVKFKDLGLLIVDEEHRFGVRHKERIKAMRANVDILTLTATPIPRTLNMAMSGMRDLSIIATPPARRLAVKTFVREYDSMVVREAILREILRGGQVYYLYNDVENIQKAAERLAELVPEARIAIGHGQMRERELERVMNDFHHQRFNVLVCTTIIETGIDIPTANTIIIERADHFGLAQLHQLRGRVGRSHHQAYAWLLTPHPKAMTTDAQKRLEAIASLEDLGAGFALATHDLEIRGAGELLGEEQSGSMETIGFSLYMELLENAVDALKAGREPSLEDLTSQQTEVELRMPSLLPDDFIPDVNTRLSFYKRIASAKTENELEEIKVELIDRFGLLPDPARTLLDIARLRQQAQKLGIRKLEGNEKGGVIEFAEKNHVNPAWLIGLLQKQPQHYRLDGPTRLKFIQDLSERKTRIEWVRQFMRELEENAIA
notes: Mfd (Transcription-Repair Coupling Factor, TRCF), E. coli, full-length, residues 1-1148; Construct bought from Genscript; Used [U-2H,15N] labelled in the NMR experiments; also called Transcription-Repair Coupling Factor; TRCF; source: E. coli BL21 Star (λDE3), purified (Ni-NTA, SEC)
Molecule B1 yielded a Kd in data set [4] of 0.31 ± 0.014 µM.

B2: UvrD-ΔCTD (1-664) (domain or fragment, E. coli, UniProt P03018 1-664, looked up)
chain: MDVSYLLDSLNDKQREAVAAPRSNLLVLAGAGSGKTRVLVHRIAWLMSVENCSPYSIMAVTFTNKAAAEMRHRIGQLMGTSQGGMWVGTFHGLAHRLLRAHHMDANLPQDFQILDSEDQLRLLKRLIKAMNLDEKQWPPRQAMWYINSQKDEGLRPHHIQSYGNPVEQTWQKVYQAYQEACDRAGLVDFAELLLRAHELWLNKPHILQHYRERFTNILVDEFQDTNNIQYAWIRLLAGDTGKVMIVGDDDQSIYGWRGAQVENIQRFLNDFPGAETIRLEQNYRSTSNILSAANALIENNNGRLGKKLWTDGADGEPISLYCAFNELDEARFVVNRIKTWQDNGGALAECAILYRSNAQSRVLEEALLQASMPYRIYGGMRFFERQEIKDALSYLRLIANRNDDAAFERVVNTPTRGIGDRTLDVVRQTSRDRQLTLWQACRELLQEKALAGRAASALQRFMELIDALAQETADMPLHVQTDRVIKDSGLRTMYEQEKGEKGQTRIENLEELVTATRQFSYNEEDEDLMPLQAFLSHAALEAGEGQADTWQDAVQLMTLHSAKGLEFPQVFIVGMEEGMFPSQMSLDEGGRLEEERRLAYVGVTRAMQKLTLTYAETRRLYGKEVYHRPSRFIGELPEECVEEVRLRATVSRPVSHQRMGTPMV
notes: UvrD helicase (Helicase II), E. coli, residues 1-664; made by inserting a stop codon; Probably the His6 full-length construct; also called truncated UvrD lacking the CTD; source: E. coli BL21(λDE3) pLysS, purified (Ni-NTA, SEC)
As for B2, the Kd in data set [4] came out at 1.9 ± 0.15 µM.

B3: Mfd RNAP Interaction Domain (Mfd-RID, residues 472-547; Domain 4) (domain or fragment, E. coli, UniProt P30958 472-547, looked up)
chain: RNLAELHIGQPVVHLEHGVGRYAGMTTLEAGGITGEYLMLTYANDAKLYVPVSSLHLISRYAGGAEENAPLHKLGG
notes: Mfd (Transcription-Repair Coupling Factor, TRCF), E. coli, residues 472-547, comprising Domain 4; Used [U-15N] labelled in the NMR experiments; source: E. coli BL21 Star (λDE3), purified (Ni-NTA, SenP1 cleavage, second Ni-NTA, SEC); not shown: His6, N-terminal, cleaved; Sumo, N-terminal, cleaved
Take B3: in data set [4], the Kd worked out at 0.25 ± 0.052 µM.

B4: UvrD helicase, full-length (1-720) (enzyme, E. coli, UniProt P03018 1-720, looked up)
chain: MDVSYLLDSLNDKQREAVAAPRSNLLVLAGAGSGKTRVLVHRIAWLMSVENCSPYSIMAVTFTNKAAAEMRHRIGQLMGTSQGGMWVGTFHGLAHRLLRAHHMDANLPQDFQILDSEDQLRLLKRLIKAMNLDEKQWPPRQAMWYINSQKDEGLRPHHIQSYGNPVEQTWQKVYQAYQEACDRAGLVDFAELLLRAHELWLNKPHILQHYRERFTNILVDEFQDTNNIQYAWIRLLAGDTGKVMIVGDDDQSIYGWRGAQVENIQRFLNDFPGAETIRLEQNYRSTSNILSAANALIENNNGRLGKKLWTDGADGEPISLYCAFNELDEARFVVNRIKTWQDNGGALAECAILYRSNAQSRVLEEALLQASMPYRIYGGMRFFERQEIKDALSYLRLIANRNDDAAFERVVNTPTRGIGDRTLDVVRQTSRDRQLTLWQACRELLQEKALAGRAASALQRFMELIDALAQETADMPLHVQTDRVIKDSGLRTMYEQEKGEKGQTRIENLEELVTATRQFSYNEEDEDLMPLQAFLSHAALEAGEGQADTWQDAVQLMTLHSAKGLEFPQVFIVGMEEGMFPSQMSLDEGGRLEEERRLAYVGVTRAMQKLTLTYAETRRLYGKEVYHRPSRFIGELPEECVEEVRLRATVSRPVSHQRMGTPMVENDSGYKLGQRVRHAKFGEGTIVNMEGSGEHSRLQVAFQGQGIKWLVAAYARLESV
notes: UvrD helicase (Helicase II), E. coli, full-length, residues 1-720; The His6 tag is called uncleavable; Used [U-2H,15N] labelled in the NMR experiments; also called UvrD-FL; UvrD full-length; source: E. coli BL21(λDE3) pLysS, purified (Ni-NTA, SEC); not shown: His6, N-terminal, kept
In turn, B4 returned a Kd in data set [4] of 1 ± 0.13 µM.

B5: biotinylated 35mer dsDNA (dsDNA)
DNA 1: CGAGCACTGCACTCGAGTGCAGTGCTCGTTGTTAT
DNA 2: CGAGCACTGCACTCGAGTGCAGTGCTCGTTGTTAT
modifications: biotin (position not given)
Regarding B5, the Kd in data set [3] (setting [5]) was determined as 1.9 ± 0.17 µM.

B6: 35mer dsDNA (dsDNA)
DNA 1: CGAGCACTGCACTCGAGTGCAGTGCTCGTTGTTAT
DNA 2: CGAGCACTGCACTCGAGTGCAGTGCTCGTTGTTAT
In the case of B6, the binding result in data set [1] (setting [5]) was “binds”.

B7: UvrD carboxy-terminal region (UvrD-CTD, residues 645-720) (domain or fragment, E. coli, UniProt P03018 645-720, looked up)
chain: RLRATVSRPVSHQRMGTPMVENDSGYKLGQRVRHAKFGEGTIVNMEGSGEHSRLQVAFQGQGIKWLVAAYARLESV
notes: UvrD helicase (Helicase II), E. coli, residues 645-720; The His6 tag is called uncleavable; Used [U-15N] labelled in the NMR experiments; source: E. coli BL21(λDE3) pLysS, purified (Ni-NTA, SEC); not shown: His6, N-terminal, kept
In data set [4], B7 showed a Kd of 0.077 ± 0.0003 µM.

These data come from paper PMC7585439, “UvrD helicase–RNA polymerase interactions are governed by UvrD’s carboxy-terminal Tudor domain” (Communications Biology, 2020).
